Measured values: patent publication US20110135636A1 (SYMPHOGEN A S, published 2011)

Experiments:
[1] = target: T1, recombinant human EGFR extracellular domain with 6xHis (human, UniProt P00533 25-645); experiment: SPR, EGFR ECD without competitor
T1 construct: In-house produced; also called 6xHis EGFR ECD; soluble human EGFR ECD; not shown: 6xHis tag
Experimental: (§1) SPR analysis was performed on a Biacore 3000 machine containing four flow cells. A CM5 Biacore chip was conjugated with 10,000 Resonance units (Ru) polyclonal anti-His antibody to flow cells 1-4 according to the manufacturer's instructions. […] Immediately after antigen injection the maximal binding of the Anti-EGFR mAb without competition was established in each flow cell during a reference run. Briefly 5 μl antibody at a concentration of 40 μg/ml was injected over all flow cells with captured EGFR followed by stripping of the antibody/antigen complex with a low pH acid wash (10 sec. contact time with 10 mM Glycine-HCl, pH2). After the determination of Anti-EGFR antibody maximal binding to each flow cell, a competition run was performed during the same Biacore cycle. Flow cells were first saturated with EGFR ECD antigen followed by injection of different reference antibodies or Anti-EGFR antibodies into separate flow cells using the same antigen saturating conditions as outlined above. This step was immediately followed by a second injection of Anti-EGFR antibody over the flow cell saturated with EGFR antigen and competition antibody to minimize the dissociation of either antigen or blocking antibody. Then the antibody/antigen complexes were stripped off with a low pH acid wash (10 sec. contact time with 10 mM Glycine-HCl, pH 2) and the whole cycle beginning with the reference run was repeated with a new Anti-EGFR antibody. The degree of inhibition of tested Anti-EGFR antibodies were determined by comparing the Ru max value of the individual Anti-EGFR antibody before and after competition by introduction of report points recorded two seconds before and after injection of each sample.

[2] = target: T2, wild type full length EGFR purified from A431 cells (human, UniProt P00533 25-1210); experiment: competition ELISA, competitor Ab-1; design: concentration or dose not given beside the values
T2 construct: mature; Bought; coated on ELISA wells; also called full length EGFR receptor antigen; Sigma E3641
Experimental: The ELISA was adapted from the descriptions published in Ditzel et al, 1995, The Journal of Immunology, Vol 154, Issue 2 893-906.
An epitope blocking ELISA was performed by diluting full length EGFR receptor antigen to 0.5 μg/ml in PBS; and coating 50 μl/ELISA well overnight at 4° C. […] Finally wells were washed four times with PBS-T and plates were developed by adding 50 μl/well TMB and read at 620 nm every 5-15-30 min. The degree of inhibition was calculated from the formula: % inhibition=(1−(OD competition/OD no competition (PBS)))×100.

[3] = target: T3, full length human EGFR expressed on the cell surface (human, UniProt P00533 25-1210); experiment: cell ELISA, IgG titrated on unfixed A431-NS cells
T3 construct: whole, on cells; also called EGFR on A431-NS cells; EGFR on HN5 cells
Experimental: (§2) Cell ELISA: The ELISA was performed essentially as described in example 15 with modifications. Cells were left unfixed to allow conformational EGFR flexibility after antibody additions. Briefly, 10,000 A431-NS cells were grown in 96 well ELISA plates containing DMEM with added 0.5% FCS and 1% P/S at 37° C., 5% CO₂ overnight. […] 25 μl DMEM containing 1% BSA was added to wells used for testing of IgG antibodies without added Fab fragments. […] Next, wells were washed four times with PBS and 50 μl of a secondary monoclonal Mouse-anti-Human (Fc specific) HRP conjugate diluted 1:5000 in DMEM containing 1% BSA was added and incubated on ice for 30 min. Finally wells were washed four times with PBS and plates developed by adding 50 μl/well TMB substrate and read at 620 nm every 5-15-30 min. After incubation with substrate the reaction was stopped by addition of 1 M H₂SO₄ and absorbance read at 450 nm. The functional affinity expressed as ED50 values were calculated by subtraction of the average background binding with secondary reagent only, followed by normalization of the binding curves by plotting % maximal binding relative to each antibody tested.
(§3) Investigations of antibody induced binding enhancements were determined by concurrent ELISA binding studies, employing same secondary antibody reagent and incubation times.

[4] = target: T1, recombinant human EGFR extracellular …; experiment: SPR, reference cycle of the run with mix N=6
Experimental: as §1

[5] = target: T3, full length human EGFR expressed on the …; experiment: FACS on CHO cells transfected with full length Human EGFR
Experimental: (§4) Bound antibody was detected with a PE labelled goat F(ab′)₂ anti-human IgG FC. Gating was performed on uniform cells (SCC/FCS properties) expressing EGFR. Binding is expressed as % maximal antibody binding at 1 nM concentration.
(§5) Briefly quantitative FACS analysis was performed on a BD FACS array Bioanalyzer System to determine the number of EGFR molecules expressed on the surface of CHO cells transfected with either Human or Cynomolgus full length EGFR. […] Antibodies were incubated with cells for 14 hours on a shaker, to promote full antigen saturation at all antibody concentrations tested, while FACS buffer was added 0.02% NaN₃ and temperature kept at 4° C. to prevent receptor internalization. After incubation, cells were pelleted at 1200 RPM for 5 min at 4° C. and resuspended in 200 ul FACS buffer. Next cells were stained with a secondary Goat F(ab′)₂ anti-Human IgG FcGamma PE diluted 1:500 and incubated for 30 min at 4° C. on a shaker. Finally cells were washed twice in FACS buffer and analyzed on a BD FACS array Bioanalyzer System with gating on EGFR expressing CHO cells displaying uniform forward/side scatter properties.

[6] = target: T3, full length human EGFR expressed on the …; experiment: cell ELISA, IgG titrated on unfixed A431-NS cells; given as ED50
Experimental: as §2, §3

[7] = target: T4, full length Cynomolgus EGFR expressed on CHO cells (Cynomolgus monkey (Macaca fascicularis), UniProt P55245 25-1210 (rhesus entry)); experiment: FACS on CHO cells transfected with full length Cynomolgus EGFR
T4 construct: The entry was cloned including the signal peptide; also called Cynomolgus full length EGFR
Experimental: as §4, §5

[8] = target: T1, recombinant human EGFR extracellular …; experiment: SPR competition, EGFR ECD first saturated with mix N=6 1261+1347+992+1024+1030+1361
Experimental: as §1

B1: antibody 1024 (antibody, human IgG1, kappa, V domains shown)
VH: QVQLQQPGAELVEPGGSVKLSCKASGYTFTSHWMHWVKQRPGQGLEWIGEINPSSGRNNYNEKFKSKATLTVDKSSSTAYMQFSSLTSEDSAVYYCVRYYGYDEAMDYWGQGTSVTVSS
VL: DIVMTQAAFSNPVTLGTSASISCRSSKSLLHSNGITYLYWYLQKPGQSPQLLIYQMSNLASGVPDRFSSSGSGTDFTLRISRVEAEDVGVYYCAQNLELPYTFGGGTKLEIKR
notes: Chimeric IgG1 kappa
Rumax reference cycle [1]: 100 Ru | % inhibition [2]: 3% | Log ED50 [3]: -0.01 | Rumax reference cycle [4]: 110 Ru | EC50 (read off the curve) [5]: ~0.01 nM | EC50 [6]: 1 nM | EC50 (read off the curve) [7]: ~0.008 nM | % inhibition [8]: 113% | Rumax competition cycle [8]: -14 Ru
